The values that follow come from the RNAGym collection of RNA variant scans (doi:10.1021/acssynbio.7b00057).

B1: Pistol ribozyme (parent)
chain: GGGUCGUUGUUCCAUAAUCGCGUGGAUAUGGCACGCAAGUUUCUACCGGGCACCGUAAAUGUCCGACUGGAGCCGUUCGGGCGGCUAUAAACAGACCUCAGGCCCGAAGCGUGGCGGCACCUGCCGCCGGUGGUAAAAAAGAUCGGAAGAGCACACGUCU

The variants in this data set derive from B1. The data set can be described thus: aptazyme ON/OFF ratio, guanine; higher = stronger switching; co-transcriptional cleavage with and without guanine.
Turning to U8G U11C C12G C13A, the “aptazyme ON/OFF ratio” value worked out at 1.25. As for U7C U8C U10G U11A C12U C13A, the “aptazyme ON/OFF ratio” value was 1.16. As for U7G U8G U11G C12G, the “aptazyme ON/OFF ratio” value stood at 1.28. The same measure for U7C U8C G9U C12A: 1.36. With U7A U8G U11A C12G the figure was 1.2. The same measure for U7C U10G U11A C12G C13A: 1.09.

As to U7G U8A G9U U10G U11C C12A C13G, the “aptazyme ON/OFF ratio” value worked out at 1.05. For U7A U8A G9A U10A U11G C12G C13U, the “aptazyme ON/OFF ratio” value was determined as 1.59. The same measure for U8A G9U U10G U11C C13U: 1.02; for U8G G9U U10G U11C C12G C13A: 1.04; for U7A U8C U10A U11A C13G: 1.29. Consider U8C G9U U10C C12A C13U, for which the “aptazyme ON/OFF ratio” value was determined as 1.19. With U7G G9U U10A C12A C13U the figure was 1.75; with U7G G9C U10G U11G C12U C13A, 1.15; with U8G G9U U10G U11G C12G C13U, 1.09. For U7C U8C G9A U10A U11A C12U C13U, the “aptazyme ON/OFF ratio” value was 1.11. With U7C U8C G9A U10A U11A C12U C13A the figure was 1.27; with G9U U10C U11A C12G C13A, 1.48.

On to U7G U8C G9A C12G, for which the “aptazyme ON/OFF ratio” value came to 1.07. The same measure for U7G G9U U11C C13A: 1.37; for U7G U8A G9U U10A C13G: 1.03.

With U7A U8A G9U U10G U11A C12A, the “aptazyme ON/OFF ratio” value is 1.29. With U7C U8G G9C U10C U11A C12U C13G the figure was 1.21; with U7G U8G G9U U10C U11A C12U C13G, 1.37. With U8G G9A U10A C12A C13A the figure was 1.33; with U7C G9A U10G U11A C13A, 1.06; with U7G U8C G9C U10C U11G C12U C13U, 1.08.

On to U7G U8G G9C U10G C12G C13A, for which the “aptazyme ON/OFF ratio” value was found to be 1.11.

Regarding U7G G9A U10A U11G C12A, the “aptazyme ON/OFF ratio” value is 1.13.

Take U7G U8A U10G U11A C12A C13A: the “aptazyme ON/OFF ratio” value was determined as 1.47. As for U7A U8G G9U U10G U11G C13U, the “aptazyme ON/OFF ratio” value amounted to 1.24. Regarding U7A U10C U11G C12U C13A, the “aptazyme ON/OFF ratio” value amounted to 1.27. The same measure for U7G U8G G9C U10G U11G C12U C13A: 1.14; for U7A G9A C12A C13U: 1.37. Consider U7C U8C G9U U10A U11G C12A, for which the “aptazyme ON/OFF ratio” value turned out to be 1.2. With U7G U10C U11C C12U C13G the figure was 1.09; with U8C G9A U10A U11C C13G, 1.04; with U7C U8G G9A U11A C12G C13A, 1.12. Turning to U8A G9A C12U C13U, the “aptazyme ON/OFF ratio” value was 1.11.

U8A G9A C12U C13A: the “aptazyme ON/OFF ratio” value was determined as 1.19. Take U7A U8G C12U: the “aptazyme ON/OFF ratio” value was found to be 1.61. With U7C U8G G9C U10G C13G the figure was 1.2; with U7C U8G U10A C13G, 1.15. With U7G U8G G9A U10A C12A C13G the figure was 1.04. With U7C U8A G9C U11C C13U the figure was 1.05; with G9C U11A C12U C13U, 1.34. U8A G9C U10A U11A C12G C13U: the “aptazyme ON/OFF ratio” value amounted to 1.3.

On to U7A U8G G9U U10A U11G C12A C13G, for which the “aptazyme ON/OFF ratio” value was determined as 1.12. With U7G G9C U11C C12U C13G the figure was 1.27. With U7A U8C U10C U11A C12A C13G the figure was 1.15. The same measure for U7G G9U U11A C12G C13G: 1.23; for U7C U11C C12G C13G: 1.29. In the case of U7C U8C U10G U11C C12U C13U, the “aptazyme ON/OFF ratio” value amounted to 1.29. The same measure for U7A U8A G9U U11G C12G: 1.19. With U7C U10G U11C C12G C13G the figure was 1.16; with U7A U8A U10C C12A, 1.16; with U7A U8A G9C U10C U11A C12A C13U, 1.06. The same measure for U7C G9C U10A U11C C12A C13A: 1.08; for U7A U11A C12G C13G: 1.14; for U8G G9U U10C C13U: 1.03. U8C G9U U10G U11C C13A: the “aptazyme ON/OFF ratio” value was determined as 1.24.

For the variant U7A G9A C13A, the “aptazyme ON/OFF ratio” value is 1.24. As for U7G U8C U10A U11G C12U, the “aptazyme ON/OFF ratio” value came out at 1.22. The same measure for U7G U8A U11G C12U C13G: 1.26; for U7G U8A U11A C12A C13A: 1.35. In the case of U8C U10C U11C C12G C13G, the “aptazyme ON/OFF ratio” value came out at 1.35.

With U7A U8A G9A U11C C12U C13U, the “aptazyme ON/OFF ratio” value amounted to 1.08. With U7C U8A G9C U10C U11A C12G C13G, the “aptazyme ON/OFF ratio” value amounted to 1.1. The same measure for U8A G9A U10A C12A: 1.43; for U7C U8G G9C U11G C12A C13A: 1.14; for G9C U10A C12G C13U: 1.22. With U7C U8G G9C U10A U11C C12G C13U the figure was 1.3; with U7A U8C U10A U11C C12A C13A, 1.07; with U7G U8A G9C U10A U11A C12G C13U, 1.02. The same measure for U7A U8C G9A U11A C13A: 1.16; for U8A G9A U10G C12A C13A: 1.42; for U7A U8C U10C U11G C12A C13U: 1.18. On to U7A U8A G9A U10A U11A C12U C13G, for which the “aptazyme ON/OFF ratio” value was 1.23. The same measure for U7A U8G G9U U10A U11A C13A: 1.48; for U7G U8A U10C U11A C12A C13U: 1.39. The same measure for U7G G9U U10A C13A: 1.44; for U7A U8A G9C U10C U11C C12G C13A: 1.02; for U8G G9C U10A U11G C12A C13A: 1.07.
